According to patent US20080213277A1 (Amgen, published 2008):
Substitutions are numbered along the chain they refer to. Bridge positions count the residues as written; N and C are the ends. Ends that are not written are not given here.

T1: hepcidin 20 (SEQ ID NO: 96) (human)
T1 construct: also called Hepc20; hepc20
T1 peptide: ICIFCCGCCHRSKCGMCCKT

T2: recombinant human prohepcidin (SEQ ID NO: 102) (human)
T2 chain: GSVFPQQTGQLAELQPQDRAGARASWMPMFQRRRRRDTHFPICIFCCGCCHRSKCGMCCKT

T3: recombinant cyno hepcidin (SEQ ID NO: 6) (cynomolgus monkey)
T3 construct: also called rcyno hepcidin; rcynoHepc
T3 peptide: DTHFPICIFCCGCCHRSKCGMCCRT

T4: recombinant mouse hepcidin (SEQ ID NO: 80) (mouse, not fully specified)
T4 construct: also called murine hepcidin
T4 peptide: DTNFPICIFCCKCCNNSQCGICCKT

B1: murine anti-human hepcidin monoclonal antibody 2.7 (antibody, V domains shown)
VH: QIQLVQSGPELKKPGETVKISCKASGYTFTTYGMSWVKQAPGKGLKWMGWINTYSGVPTYADDFKGRFAFSLETSASTAYLQINNLKNEDTATYFCGRDHYYGEVAYWGQGTLVTVSA
VL: DIVLTQSPASLAVSLGQRATISCRASESVDSYGNSFMHWYQQKPGQPPKLLIYRASNLESGIPARFSGSGSRTDFTLTINPVEADDVATYYCHQSNEEYTFGGGTKLEIK
notes: Mouse hybridoma monoclonal; Murine IgG1 was used as its isotypic control; also called Ab2.7; Ab 2.7
B2: murine anti-human hepcidin monoclonal antibody Ab43 (antibody, V domains shown)
VH: QIQLVQSGPELKKPGETVKISCKASGYTFTTYGMSWVKQAPGKGLKWMGWINTYSGVPTYADDFKGRFAFSLETSASTAYLQINNLKNEDTATYFCASLWYYGRAFDYWGQGTTLTVSS
VL: B1 VL with D1N, R54L, I62V, N80D, V87A, H93Q, S95N, E98D, Y99R
notes: Mouse hybridoma monoclonal; also called mAB 43
B3: murine anti-human hepcidin monoclonal antibody 2.41 (antibody, V domains shown)
VH: B1 VH with Y54S, K65M, G97A, H100R
VL: B1 VL with Y32F, Q42L, T89I, H93Q
notes: Mouse hybridoma monoclonal
B4: rat anti-human hepcidin monoclonal antibody R9 (antibody, V domains shown)
VH: QVTLKESGPGILQPSQTLSLTCSFSGFSLSTSGICVSWIRQPSGKGLEWLATICWEDSKGYNPSLKNRLTISKDTSNNQAFLKITSVDTADTAIYYCARPLNYGGYSELELDYWGQGVMVTVSS
VL: DIQMTQSPSLLSASVGDRVTLSCKASQNIYKYLNWYQQKLGEAPKLLIYYTNSLQTGIPSRFSGSGSGTDFTLTISSLQPEDVATYYCYQYNSGPTFGAGTKLELK
notes: Rat hybridoma monoclonal; also called mAb R9
B5: human hepcidin (SEQ ID NO: 9), mature, correctly folded (peptide)
peptide: DTHFPICIFCCGCCHRSKCGMCCKT
modifications: disulfide 10-13, 11-19, 14-22, 7-23; not fully specified
notes: 25-residue mature peptide with four disulfides (C7-C23, C10-C13, C11-C19, C14-C22); Recombinant (E. coli or CHO) or synthetic, by assay; also called rhHepc; shHepc

How the values were obtained:
[1] = target: B5; assay: BIAcore: 1 nM antibody preincubated with 10 nM of this hepcidin form in solution, then run over immobilized rhHepc surface; % = free antibody still binding the surface (low % = strong binding to the solution form)
Method: (§1) Recombinant hepcidin was immobilized on a CM5 chip according to manufacturer's instructions at a flow rate 10 μL/min of running buffer (DPBS: Dulbecco's Phosphate Buffer Saline1X, GIBCO 14190, with 0.005% BIAcore surfactant P-20). The carboxylated matrix of the sensor chip was first activated with a 100 μL injection of 1:1 mixture of EDC (75 mg/mL N-ethyl-N-(dimethylamine-propyl)carbodiimide in water, from Biacore) and NHS (11.5 mg/mL N-hydroxysuccinimide in water, from Biacore). […] The excess reactive groups of the sensor chip were deactivated with an injection of 100 μL of ethanolamine (1.0M, from Biacore).
(§2) The binding signal obtained was proportional to the concentration of free antibody in solution at equilibrium.

[2] = target: T1, hepcidin 20 (SEQ ID NO: 96); assay: as above
Method: as §1, §2

[3] = target: T2, recombinant human prohepcidin (SEQ ID …); assay: sandwich immunoassay: Ab2.7 capture, biotinylated rabbit anti-prohepcidin polyclonal detection; the prohepcidin concentration is varied (buffer curves)
Method: In order to reliably assess prohepcidin concentrations, a prohepcidin standard was measured after incubation for 60 minutes at 25° C. in a range of different buffers or sera.

[4] = target: T3, recombinant cyno hepcidin (SEQ ID NO: 6); assay: KinExA solution equilibrium: fixed antibody + varied rcyno hepcidin, free antibody captured on rcyno hepcidin-coated beads
From the text: Reacti-Gel 6× beads (Pierce, Rockford, Ill.) were pre-coated with rcyno hepcidin (SEQ ID NO: 6) and blocked with BSA according to manufacturer's instructions. […] The amount of the bead-bound antibody was quantified by fluorescently (Cy5)-labeled goat anti-murine-IgG (H+L) antibody (Jackson Immuno Research, West Grove, Pa.). The binding signal is proportional to the concentration of free antibody at equilibrium. Dissociation equilibrium constant (KD) was obtained from nonlinear regression of the competition curves using a dual-curve one-site homogeneous binding model (KinExA™ Pro software).

[5] = target: B5; assay: BIAcore: 1 nM antibody over immobilized rhHepc surface, no competitor (reference)
Method: as §1, §2

[6] = target: B5; assay: BIAcore solution equilibrium: fixed antibody incubated with varied hepcidin, free antibody read on immobilized hepcidin chip
Method: (§3) Preparation of BIAcore chip surfaces: Immobilization of proteins to a BIAcore was performed according to manufacturer's instructions at a flow rate 10 μL/min of running buffer (DPBS: Dulbecco's Phosphate Buffer Saline1X, GIBCO 14190, with 0.005% Biacore surfactant P-20). The carboxylated matrix of the sensor chip was first activated with a 100 μL injection of 1:1 mixture of EDC (75 mg/mL N-ethyl-N-(dimethylamine-propyl)carbodiimide in water, from BIAcore) and NHS (11.5 mg/mL N-hydroxysuccinimide in water, from Biacore). […] The excess reactive groups of the sensor chip were deactivated with an injection of 100 μL of ethanolamine (1.0M, from Biacore).
(§4) Equilibrium binding analysis of antibody/hepcidin interactions on immobilized hepcidin surface: Fixed concentrations of antibody were incubated with various concentrations of hepcidin at room temperature for several hours before run through the immobilized hepcidin surface. After each sample injection, the surfaces were regenerated by injecting 30 μL […] glycine, pH1.5. The binding signal obtained is proportional to the free antibody in solution at equilibrium. The equilibrium dissociation constant (KD) was calculated from nonlinear regression analysis of the competition curves using a one or dual-curve one-site homogeneous binding model (KinExA™ software, Sapidyne Instruments Inc., Boise Id.).

[7] = target: T4, recombinant mouse hepcidin (SEQ ID NO: …); assay: as above
Method: as §3, §4

[8] = target: T3, recombinant cyno hepcidin (SEQ ID NO: 6); assay: BIAcore solution equilibrium: fixed rcynoHepc + varied antibody, free rcynoHepc read on immobilized antibody surface
Method: The immobilization was performed at a flow rate 10 uL/min of running buffer (DPBS: Dulbecco's Phosphate Buffer Saline1, GIBCO 14190, with 0.005% BIAcore surfactant P-20) according to manufacturer's instructions. The carboxylated matrix of the sensor chip was first activated with a 100 ul injection of 1:1 mixture of EDC (75 mg/mL N-ethyl-N-(dimethylamine-propyl)carbodiimide in water, from BIAcore) and NHS (11.5 mg/mL N-hydroxysuccinimide in water, from BIAcore). 180 ul of antibodies (˜20 ug/ml in 10 mM Na-acetate pH4.0) was injected to immobilize onto the sensor chip at 30 uL/min. The excess reactive groups of the sensor chip were deactivated with an injection of 100 uL of ethanolamine (1.0M, from BIAcore).
The binding signal obtained is proportional to the free rcynoHepc in solution at equilibrium. The equilibrium dissociation constant (KD) was calculated from nonlinear regression analysis of the competition curves using a one-curve one-site homogeneous binding model (KinEx™ software, Sapidyne Instruments Inc., Boise Id.).

[9] = target: T1, hepcidin 20 (SEQ ID NO: 96); assay: BIAcore solution competition: 1 nM antibody preincubated with 10 nM antigen, then immobilized hepcidin surface; '-' = no inhibition by the solution form
Method: as §1, §2

[10] = target: B1; assay: competitive binding assay: unlabeled human hepcidin against 0.25 nM biotinylated hepcidin for Ab2.7; standards in 5% BSA:I-block buffer
Method: (§5) Hepcidin levels were determined using hepcidin standards of varying concentrations (from 1.4-300 ng/ml) spiked into buffer (5% BSA:I-block), rabbit serum, or pooled human serum. […] 25 μl/well of mixed solution was added to Black half area plates coated with 1-2 μg/mL G×M capture antibody. 25 μL/well of biotinylated hepcidin was added at 0.25 nM. The plate was covered with plate film sealer and incubated at room temperature (25° C.) on a plate shaker at around ≦200 RPM for around 60 minutes. The plate was washed and then 50 μL/well of Poly horseradish peroxidase amplification reagent at 1:2000 was added. The plate was allowed to sit for 30 minutes and was then washed with a plate washer using PBS or KPL buffer 6 times. The plate was patted dry and a luminescent substrate (Femto or Pico) was quickly added. The plate was read with luminometer (ex: Lmax 340) for 1 second using Femto or Pico Substrate. […] (FIG. 30).

[11] = target: B1; assay: competitive binding assay: unlabeled human hepcidin against 0.25 nM biotinylated hepcidin for Ab2.7; standards in rabbit serum
Method: as §5

Row | Binder | Binding to Hepcidin Surface (%) [1] [%] | Binding to Hepcidin Surface (%) [2] [%] | EC50 (read off the curve) [3] [ng/mL] | Kd [4] [nM] | Binding to Hepcidin Surface (%) [5] [%] | Kd [6] [nM] | Kd [7] [nM] | Kd [8] [nM] | binding result [9] | IC50 (read off the curve) [10] [ng/mL] | IC50 (read off the curve) [11] [ng/mL]
1 | B1 | 2 | 3 | ~10 | ~0.016 | 100 | 0.11 | 40 |  |  |  | 
2 | B2 | 11 | 100 |  |  | 100 | 0.56 | 14 | ~0.1 | no binding (tested: 10 nM) |  | 
3 | B3 | 0 | 1 |  | ~0.009 | 100 | 0.05 | 30 |  |  |  | 
4 | B4 | 79 | 88 |  |  | 100 | 21 | 20 | ~10 |  |  | 
5 | B5 |  |  |  |  |  |  |  |  |  | ~7 | ~7
